In publication PMC10256812:

B1: HA-tagged SREBF1 (wild type), expressed in C4-2B cells [not stated] / KAT2A/GCN5, endogenous [human (endogenous in C4-2B, LAPC4)] (parent)
chain 1: MDEPPFSEAALEQALGEPCDLDAALLTDIEDMLQLINNQDSDFPGLFDPPYAGSGAGGTDPASPDTSSPGSLSPPPATLSSSLEAFLSGPQAAPSPLSPPQPAPTPLKMYPSMPAFSPGPGIKEESVPLSILQTPTPQPLPGALLPQSFPAPAPPQFSSTPVLGYPSPPGGFSTGSPPGNTQQPLPGLPLASPPGVPPVSLHTQVQSVVPQQLLTVTAAPTAAPVTTTVTSQIQQVPVLLQPHFIKADSLLLTAMKTDGATVKAAGLSPLVSGTTVQTGPLPTLVSGGTILATVPLVVDAEKLPINRLAAGSKAPASAQSRGEKRTAHNAIEKRYRSSINDKIIELKDLVVGTEAKLNKSAVLRKAIDYIRFLQHSNQKLKQENLSLRTAVHKSKSLKDLVSACGSGGNTDVLMEGVKTEVEDTLTPPPSDAGSPFQSSPLSLGSRGSGSGGSGSDSEPDSPVFEDSKAKPEQRPSLHSRGMLDRSRLALCTLVFLCLSCNPLASLLGARGLPSPSDTTSVYHSPGRNVLGTESRDGPGWAQWLLPPVVWLLNGLLVLVSLVLLFVYGEPVTRPHSGPAVYFWRHRKQADLDLARGDFAQAAQQLWLALRALGRPLPTSHLDLACSLLWNLIRHLLQRLWVGRWLAGRAGGLQQDCALRVDASASARDAALVYHKLHQLHTMGKHTGGHLTATNLALSALNLAECAGDAVSVATLAEIYVAAALRVKTSLPRALHFLTRFFLSSARQACLAQSGSVPPAMQWLCHPVGHRFFVDGDWSVLSTPWESLYSLAGNPVDPLAQVTQLFREHLLERALNCVTQPNPSPGSADGDKEFSDALGYLQLLNSCSDAAGAPAYSFSISSSMATTTGVDPVAKWWASLTAVVIHWLRRDEEAAERLCPLVEHLPRVLQESERPLPRAALHSFKAARALLGCAKAESGPASLTICEKASGYLQDSLATTPASSSIDKAVQLFLCDLLLVVRTSLWRQQQPPAPAPAAQGTSSRPQASALELRGFQRDLSSLRRLAQSFRPAMRRVFLHEATARLMAGASPTRTHQLLDRSLRRRAGPGGKGGAVAELEPRPTRREHAEALLLASCYLPPGFLSAPGQRVGMLAEAARTLEKLGDRRLLHDCQQMLMRLGGGTTVTSS
chain 2: MAEPSQAPTPAPAAQPRPLQSPAPAPTPTPAPSPASAPIPTPTPAPAPAPAAAPAGSTGTGGPGVGSGGAGSGGDPARPGLSQQQRASQRKAQVRGLPRAKKLEKLGVFSACKANETCKCNGWKNPKPPTAPRMDLQQPAANLSELCRSCEHPLADHVSHLENVSEDEINRLLGMVVDVENLFMSVHKEEDTDTKQVYFYLFKLLRKCILQMTRPVVEGSLGSPPFEKPNIEQGVLNFVQYKFSHLAPRERQTMFELSKMFLLCLNYWKLETPAQFRQRSQAEDVATYKVNYTRWLCYCHVPQSCDSLPRYETTHVFGRSLLRSIFTVTRRQLLEKFRVEKDKLVPEKRTLILTHFPKFLSMLEEEIYGANSPIWESGFTMPPSEGTQLVPRPASVSAAVVPSTPIFSPSMGGGSNSSLSLDSAGAEPMPGEKRTLPENLTLEDAKRLRVMGDIPMELVNEVMLTITDPAAMLGPETSLLSANAARDETARLEERRGIIEFHVIGNSLTPKANRRVLLWLVGLQNVFSHQLPRMPKEYIARLVFDPKHKTLALIKDGRVIGGICFRMFPTQGFTEIVFCAVTSNEQVKGYGTHLMNHLKEYHIKHNILYFLTYADEYAIGYFKKQGFSKDIKVPKSRYLGYIKDYEGATLMECELNPRIPYTELSHIIKKQKEIIKKLIERKQAQIRKVYPGLSCFKEGVRQIPVESVPGIRETGWKPLGKEKGKELKDPDQLYTTLKNLLAQIKSHPSAWPFMEPVKKSEAPDYYEVIRFPIDLKTMTERLRSRYYVTRKLFVADLQRVIANCREYNPPDSEYCRCASALEKFFYFKLKEGGLIDK

Variants of: B1
Test: co-immunoprecipitation (anti-HA affinity gel, immunoblot with KAT2A antibody), band quantification
Conditions: with KAT2A/GCN5, endogenous [human (endogenous in C4-2B, LAPC4)]; C4-2B cells; + Abi; parent: 1

Row | response | Variant
1 | 0.01 | chain 1 Y673A Y951A
